We go through 18 molecules from patent CN117327176A (NANJING RONGJIEKANG BIOTECHNOLOGY CO LTD, dated 2024).

First the molecules themselves.
B1: 单域抗体 23G12 (VHH, E. coli crude extract) (VHH)
VHH: ESGGGSVQAGGSLRLSCATSRFTYGSACMGWFRQSPGKEREQVAGIAMGVVTYYADSVKGRFTISQDNGKNTVDLQMDNLKPEDTAMYYCATGPAHYKCYSASGGRYNYWGQGTQVTVSS
notes: Expressed from pMECS in E. coli and detected through an HA tag
B2: 单域抗体 27H4 (VHH, E. coli crude extract) (VHH)
VHH: ESGGGSVQAGGSLRLSCATSRFTYGSACMGWFRHAPGKEREQVAGIAMGVVTYYADSVKGRFTISQDNGKNTVDLQMDNLKPEDTAMYYCATGPAHYKCYSPSGGRYNYWGQGTQVTVSS
notes: as for B1
B3: 单域抗体 1A6 (VHH, E. coli crude extract) (VHH)
VHH: ESGGGSVQAGGSLRLSCATSRYTYGSSCMAWFRQSPGKEREQVAGIAMGVVTYYADSVKGRFTISQDNGKNTVDLQMDNLKPEDTAMYYCAAGPPHYKCYSVSGGRYNYWGQGTQVTVSS
notes: as for B1
B4: 单域抗体 4B2 (VHH, E. coli crude extract) (VHH)
VHH: ESGGGSVQAGGSLRLSCATSRYTYGSACMGWFRQSPGKEREQVAGIAMGVVTYYADSVKGRFTISQDNGKNTVDLQMDNLKPEDTAMYYCAAGPAHYLCYSASGGRYTSWGQGTQVTVSS
notes: as for B1
B5: 单域抗体 1A7 (VHH, E. coli crude extract) (VHH)
VHH: ESGGGSVQAGGSLRLSCATPRYTYGTSCMGWFRQSPGYQREQVAGIAMGVVTYYADSVKGRFTISQDNGKNTVDLQMDNLKPEDTAMYYCAAGPAHYKCYSASGGRYNYWGQGTQVTVSS
notes: as for B1
B6: 单域抗体 1D1 (VHH, E. coli crude extract) (VHH)
VHH: ESGGGSVQVGGSLRLSCATSRFTYGSACMGWFRQSPGKEREQVAGIAMGVVTYYADSVKGRFTISQDNGKNTVDLQMDNLKPEDTAMYYCATGPAHYKCYSASGGRYSDWGQGTQVTVSS
notes: as for B1
B7: 单域抗体 4F3 (VHH, E. coli crude extract) (VHH)
VHH: ESGGGSVQAGGSLRLSCATSRYTYGSSCMGWFRQSPGKEREQVAGIAMGVVTYYADSVKGRFTISQDNNKNTVDLQMDNLKPEDTAMYYCASGPPHYKCYSASGGRYNYWGQGTQVTVSS
notes: as for B1
B8: 单域抗体 214D11 (VHH, E. coli crude extract) (VHH)
VHH: ESGGGSVQAGGSLRLSCATSRFTYGSACMGWFRQSPGKEREQVAGIAMGVVTYYADSVKGRFTISQDNGKNTVDLQMDNLKPEDTAMYYCATGPAHYKCYSASGGRYDAWGQGTQVTVSS
notes: as for B1
B9: 单域抗体 2D10 (VHH, E. coli crude extract) (VHH)
VHH: ESGGGSVQAGGSLRLSCATSRFTYGSACMGWFRQSPGKEREQVAGIAMGVVTYYADSVKGRFTISQDNGKNTVDLQMDNLKPDDTAMYYCATGPAHYKCYSASGGRYNYWGQGTQVTVSS
notes: as for B1
B10: 单域抗体 21H6 (VHH, E. coli crude extract) (VHH)
VHH: ESGGGSVQAGGSLRLSCATSRWTYGTACMGWFRQSPGKEREQVAGIAMGVVTYYADSVEGRFTISQDNEKNTVDLQMDNLKPEDTAMYYCATGPAHYKCYSASGGRYNYWGQGTQVTVSS
notes: as for B1
B11: 单域抗体 2G5 (VHH, E. coli crude extract) (VHH)
VHH: ESGGGSVQAGGSLRLSCATSRFTYGSACMGWFRQSPGKEREQVAGIAMGVVTYYADSVKGRFTISQDNGKNTVDLQMDNLKPEDTAMYYCATGPAHYNCYSASGGRYNYWGQGTQVTVSS
notes: as for B1
B12: 单域抗体 1F9 (VHH, E. coli crude extract) (VHH)
VHH: ESGGGSVQAGGSLRLSCATSRYTYNCMGWFRQSPGKEREQVAGIAMGVVTYYADSVKGRFTISQDNGKNTVDLQMDNLKPEDTAMYYCAAGPAHYKCYSPSGGRYNYWGQGTQVTVSS
notes: as for B1
B13: 单域抗体 1H5 (VHH, E. coli crude extract) (VHH)
VHH: ESGGGLVQPGGSLRLSCATSRYTYNCMGWFRQSPGKEREQVAGIAMGVVTYYADSVKGRFTISQDNGKNTVDLQMDNLKPEDTAMYYCAAGPAHYKCYSPSGGRYNYWGQGTQVTVSS
notes: as for B1
B14: 单域抗体 4A1 (VHH, E. coli crude extract) (VHH)
VHH: ESGGGSVQAGGSLRLSCATSRYTYNCMGWFRQSPGKEREQVAGIAMGVVTYYADSVKGRFTISQDNGKNTVDLQMDNLKPEDTAMYYCASGPPHYKCYSASGGRYNYWGQGTQVTVSS
notes: as for B1
B15: 单域抗体 1B7 (VHH, E. coli crude extract) (VHH)
VHH: ESGGGSVQAGGSLRLSCTTSGYTYSSNCIGWFRQAPGKEREEIATISRVGEITFYADSVKGRFTISQDNTETTVFLQMNSLKPEDTAVYYCAASPPTYGGCPTRSRDYDKWGQGTQVTVSS
notes: as for B1
B16: 单域抗体 1F3 (VHH, E. coli crude extract) (VHH)
VHH: ESGGGSVQAGGSLRLSCATSTSRFTYGSACMGWFRQSPGKEREQVAGIAMGVVTYYADSVKGRFTISQDNGKNTVDLQMDNLKPEDTAMYYCAAGPAHYNCYSASGGRYNYWGQGTQVTVSS
notes: as for B1
B17: 单域抗体 212C7 (VHH, E. coli crude extract) (VHH)
VHH: ESGGGLVQPGGSLRLSCATSTSRFTYGSACMGWFRQSPGKEREQVAGIAMGVVTYYADSVKGRFTISQDNGKNTVDLQMDNLKPEDTAMYYCAAGPAHYNCYSASGGRYNYWGQGTQVTVSS
notes: as for B1
B18: 单域抗体 2H3 (VHH, E. coli crude extract) (VHH)
VHH: ESGGGSVQAGGSLRLSCATSTSRFTYGSACMGWFRQSPGKEREQVAGIAMGVVTYYADSVKGRFTISQDNGKNTVDLQMDNLKPEDTAMYYCAAGPAHYKCYSASGGRYNIWGQGTQVTVSS
notes: as for B1

The assay has as its target T1, 人源TSLP蛋白 (Thymic stromal lymphopoietin) (human, UniProt Q969D9 29-159).
T1 construct: also called 人源重组TSLP蛋白; TSLP重组蛋白
Put plainly: ELISA of E. coli crude extract on coated TSLP, anti-HA HRP; positive if OD more than 5 times the control well. On the technique in general: ELISA stands for enzyme-linked immunosorbent assay.
As to B1, the binding result is “binds”.

Turning to B2, the binding result was “binds”.

B3: the binding result was “binds”. For the molecule B4, the binding result was “binds”. B5: the binding result is on record as “binds”. B6: the binding result is “binds”. Turning to B7, the binding result is recorded as “binds”.

Regarding B8, the binding result is reported as “binds”. The entry for B9 is “binds”; for B10 it is “binds”. Consider B11, for which the binding result was “binds”.

For the molecule B12, the binding result is “binds”. B13: the binding result is “binds”. With B14, the binding result was “binds”. The value for B15 was “binds”. The value for B16 was “binds”; that for B17 was “binds”. For B18, the binding result is on record as “binds”.
